Assays:
[1] = molecular target: T1, human complement Factor H (human, UniProt P08603 19-1231); test: steady state tryptophan fluorescence quenching, titration of Factor H with BSP
T1 construct: In some experiments Factor H is the endogenous protein of normal human serum; also called fH; purified human Factor H (Quidel)
Text: (§1) Steady state fluorescence studies were accomplished by titrating purified human complement Factor H with rBSP, rOPN, and rDMP1 followed by excitation at 295 nm and monitoring emission between 300 and 450 nm. The emission profile of Factor H alone yields a peak at 347 nm. The addition of rBSP, rOPN, or rDMP1 in nm increments causes a relative fluorescent intensity quenching. Conversion of the fluorescent intensity titration into a binding curve by determining the fraction of binding sites occupied as the fractional change in fluorescence quenching at 347 nm yields a saturable binding curve. […] Given that normal serum concentration of Factor H is ~0.5 mg/mL it is probable that virtually all BSP, OPN, and DMP1 in serum will be complexed with Factor H.

[2] = molecular target: T2, αVβ3 integrin on murine erythroleukemia (MEL) cells (murine (MEL cells), UniProt P43406 31-1044; O54890 26-787); test: inferred from MEL cell complement lysis assay with GRGDS peptide, αVβ3 antibody and RGD->KAE mutant
T2 construct: whole, on cells; also called integrins; cell surface integrins
T2 sequence (P43406 31-1044, chain 1 of 2): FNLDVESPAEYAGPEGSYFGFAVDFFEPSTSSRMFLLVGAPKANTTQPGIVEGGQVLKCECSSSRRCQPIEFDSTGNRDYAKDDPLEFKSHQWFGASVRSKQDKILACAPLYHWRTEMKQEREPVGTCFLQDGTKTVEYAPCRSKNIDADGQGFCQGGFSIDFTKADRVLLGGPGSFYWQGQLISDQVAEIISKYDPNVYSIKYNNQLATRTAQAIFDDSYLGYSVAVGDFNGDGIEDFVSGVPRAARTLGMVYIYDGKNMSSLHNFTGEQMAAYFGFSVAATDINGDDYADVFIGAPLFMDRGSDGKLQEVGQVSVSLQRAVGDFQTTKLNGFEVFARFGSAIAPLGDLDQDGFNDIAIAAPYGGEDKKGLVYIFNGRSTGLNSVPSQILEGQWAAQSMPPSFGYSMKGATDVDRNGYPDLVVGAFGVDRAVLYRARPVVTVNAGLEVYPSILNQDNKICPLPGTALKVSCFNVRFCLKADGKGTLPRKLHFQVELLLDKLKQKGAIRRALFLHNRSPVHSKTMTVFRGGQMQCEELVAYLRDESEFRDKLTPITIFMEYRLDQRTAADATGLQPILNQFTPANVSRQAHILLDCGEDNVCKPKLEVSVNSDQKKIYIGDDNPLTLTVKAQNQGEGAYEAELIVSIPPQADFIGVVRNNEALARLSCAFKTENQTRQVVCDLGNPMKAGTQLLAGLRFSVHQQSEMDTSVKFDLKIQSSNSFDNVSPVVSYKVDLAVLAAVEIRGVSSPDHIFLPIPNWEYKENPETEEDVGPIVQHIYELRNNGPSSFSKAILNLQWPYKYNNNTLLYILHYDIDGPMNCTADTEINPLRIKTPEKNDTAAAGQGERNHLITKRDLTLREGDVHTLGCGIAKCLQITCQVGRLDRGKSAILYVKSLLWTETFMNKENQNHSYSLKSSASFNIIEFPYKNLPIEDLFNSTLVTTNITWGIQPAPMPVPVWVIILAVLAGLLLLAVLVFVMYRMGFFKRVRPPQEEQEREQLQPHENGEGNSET
T2 sequence (O54890 26-787, chain 2 of 2): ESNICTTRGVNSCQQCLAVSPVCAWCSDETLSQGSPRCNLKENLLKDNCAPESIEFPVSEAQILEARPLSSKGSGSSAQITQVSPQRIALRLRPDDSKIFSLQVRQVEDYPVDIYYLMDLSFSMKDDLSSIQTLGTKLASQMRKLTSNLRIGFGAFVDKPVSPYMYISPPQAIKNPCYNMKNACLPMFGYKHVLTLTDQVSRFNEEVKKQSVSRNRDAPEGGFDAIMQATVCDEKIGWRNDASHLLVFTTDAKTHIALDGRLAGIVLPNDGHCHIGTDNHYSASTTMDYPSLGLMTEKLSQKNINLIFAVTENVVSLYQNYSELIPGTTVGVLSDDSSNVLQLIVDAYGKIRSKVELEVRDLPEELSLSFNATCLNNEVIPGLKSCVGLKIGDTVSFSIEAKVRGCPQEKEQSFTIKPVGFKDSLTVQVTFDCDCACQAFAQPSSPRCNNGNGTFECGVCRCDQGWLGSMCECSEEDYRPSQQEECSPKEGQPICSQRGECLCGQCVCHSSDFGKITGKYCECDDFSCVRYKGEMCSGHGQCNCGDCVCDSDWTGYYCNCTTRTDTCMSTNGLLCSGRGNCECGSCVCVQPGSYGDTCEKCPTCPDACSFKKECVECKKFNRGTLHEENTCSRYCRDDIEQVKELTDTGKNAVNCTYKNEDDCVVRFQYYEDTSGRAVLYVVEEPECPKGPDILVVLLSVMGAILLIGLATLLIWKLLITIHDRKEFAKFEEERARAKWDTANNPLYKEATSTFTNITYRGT
Procedure: MEL cells prepared as in FIG. 8 were treated with normal rBSP (10 μg/mL), rBSP whose RGD sequence had been mutated to KAE ([…]), and either GRGDS (SEQ ID NO: 10) peptide (400 μM) followed by rBSP or an αVβ3 antibody (1:4000) followed by rBSP for 10 minutes prior to the addition of normal human serum. The cells were then incubated for 10 minutes after which cell viability determined using the MTT assay (A). A cohort of MEL cells were pretreated with rOPN (10 μg/mL) alone, GRGDS (SEQ ID NO: 10) peptide followed by rOPN, the αVβ3 antibody followed by rOPN, or an anti-CD44 antibody (Chemicon, Co.) followed by rOPN, or hyaluronan (HA) followed by rOPN (B). Cells were then treated with normal human serum and viability assayed as in FIG. 8. […] Statistical significance was determined by analysis of variance. Percent cell viability was determined using A560 absorbance values of various conditions and a control where no serum had been added (100% viable). […]
Murine erytliroleukemia (MEL) cells (a gift of Dr. Marilyn Farquhar, Univ. CA San Diego.) grown in DMEM containing 10% fetal bovine serum and 4 mM glutamine were rinsed three times with gelatin veronal buffer with Mg_2^+ and EGTA (GVB-MgEGTA, Sigma, St. Louis, Mo.). […] Cell viability was determined spectrophotometrically by absorbance at 560 nm.

[3] = molecular target: T1, human complement Factor H; test: steady state fluorescence, titration of purified human Factor H with rDMP1
Text: as §1

T1 sequence (P08603 19-1231 limits assumed): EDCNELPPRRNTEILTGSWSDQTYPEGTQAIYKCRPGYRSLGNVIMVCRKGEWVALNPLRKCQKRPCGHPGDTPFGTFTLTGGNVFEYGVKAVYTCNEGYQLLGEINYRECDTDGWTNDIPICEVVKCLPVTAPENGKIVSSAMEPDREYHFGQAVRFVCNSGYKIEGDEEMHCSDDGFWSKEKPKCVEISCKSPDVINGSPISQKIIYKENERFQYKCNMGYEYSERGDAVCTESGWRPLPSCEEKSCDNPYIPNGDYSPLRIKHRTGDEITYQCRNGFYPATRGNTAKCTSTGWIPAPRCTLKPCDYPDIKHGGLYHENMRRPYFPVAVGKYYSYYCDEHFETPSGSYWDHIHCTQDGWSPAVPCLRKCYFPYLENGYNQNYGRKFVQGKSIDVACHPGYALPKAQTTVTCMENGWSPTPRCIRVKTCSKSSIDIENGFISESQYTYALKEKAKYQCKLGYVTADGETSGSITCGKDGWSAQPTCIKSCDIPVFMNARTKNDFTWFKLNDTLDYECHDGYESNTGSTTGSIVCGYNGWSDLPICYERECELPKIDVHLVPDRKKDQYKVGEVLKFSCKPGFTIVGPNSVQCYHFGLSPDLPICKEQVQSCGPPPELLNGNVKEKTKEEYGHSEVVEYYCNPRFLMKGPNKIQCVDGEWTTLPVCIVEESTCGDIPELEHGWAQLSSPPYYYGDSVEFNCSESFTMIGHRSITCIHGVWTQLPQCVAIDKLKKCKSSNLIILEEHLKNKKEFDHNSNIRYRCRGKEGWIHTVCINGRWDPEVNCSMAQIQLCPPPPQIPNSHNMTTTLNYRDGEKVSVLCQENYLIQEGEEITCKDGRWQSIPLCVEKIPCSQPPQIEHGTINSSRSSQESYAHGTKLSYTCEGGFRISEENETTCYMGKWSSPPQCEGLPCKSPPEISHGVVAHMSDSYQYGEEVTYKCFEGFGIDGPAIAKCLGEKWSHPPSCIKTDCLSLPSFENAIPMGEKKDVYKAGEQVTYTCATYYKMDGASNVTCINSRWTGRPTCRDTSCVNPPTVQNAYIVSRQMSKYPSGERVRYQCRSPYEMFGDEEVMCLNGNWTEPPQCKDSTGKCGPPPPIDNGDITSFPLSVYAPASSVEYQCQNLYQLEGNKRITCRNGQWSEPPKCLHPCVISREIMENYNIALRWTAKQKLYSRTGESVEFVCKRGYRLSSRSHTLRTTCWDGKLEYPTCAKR

B1: recombinant human bone sialoprotein (rBSP) (ligand)
chain: FSMKNLHRRVKIEDSEENGVFKYRPRYYLYKHAYFYPHLKRFPVQGSSDSSEENGDDSSEEEEEEEETSNEGENNEESNEDEDSEAENTTLSATTLGYGEDATPGTGYTGLAAIQLPKKAGDITNKATKEKESDEEEEEEEEGNENEESEAEVDENEQGINGTSTNSTEAENGNGSSGGDNGEEGEEESVTGANAEGTTETGGQGKGTSKTTTSPNGGFEPTTPPQVYRTTSPPFGKTTTVEYEGEYEYTGVNEYDNGYEIYESENGEPRGDNYRAYEDEYSYFKGQGYDGYDGQNYYHHQ
modifications: post-translationally modified by the producing human marrow stromal fibroblasts (glycosylation, sulfation, phosphorylation; sites not stated)
notes: Range 17-317 follows the stated 16-residue leader; not checked against the listing; also called recombinant BSP; purified human BSP
B1 was tested, and the Kd [1] was no more than 1 nM, the “stoichiometry (BSP:Factor H)” value [1] was 1 mol/mol and the binding result [2] was “binds”.

B2: recombinant dentin matrix protein 1 (rDMP1) (ligand)
chain: LPVTRYQNNESEDSEEWKGHLAQAPTPPLESSESSEGSKVSSEEQANEDPSDSTQSEEGLGSDDHQYIYRLAGGFSRSTGKGGDDKDDDEDDSGDDTFGDDDSGPGPKDRQEGGNSRLGSDEDSDDTIQASEESAPQGQDSAQDTTSESRELDNEDRVDSKPEGGDSTQESESEEHWVGGGSDGESSHGDGSELDDEGMQSDDPESIRSERGNSRMNSAGMKSKESGENSEQANTQDSGGSQLLEHPSRKIFRKSRISEEDDRSELDDNNTMEEVKSDSTENSNSRDTGLSQPRRDSKGDSQEDSKENLSQEESQNVDGPSSESSQEANLSSQENSSESQEEVVSESRGDNPDPTTSYVEDQEDSDSSEEDSSHTLSHSKSESREEQADSESSESLNFSEESPESPEDENSSSQEGLQSHSSSAESQSEESHSEEDDSDSQDSSRSKEDSNSTESKSSSEEDGQLKNIEIESRKLTVDAYHNKPIGDQDDNDCQDGY
In the case of B2, the “stoichiometry (DMP1:Factor H)” value [3] is reported as 1 mol/mol.
